In test [1] the target is SecYEG-SecDF•YajC (E. coli) (UniProt P0AGA2).
Test [2] has as its target SecA C34 (C-terminal 34 kD protein; SecA 610-901) (E. coli) (UniProt P10408).

B1: SecA N640 (SecA 1-640) (domain or fragment)
chain: MLIKLLTKVFGSRNDRTLRRMRKVVNIINAMEPEMEKLSDEELKGKTAEFRARLEKGEVLENLIPEAFAVVREASKRVFGMRHFDVQLLGGMVLNERCIAEMRTGEGKTLTATLPAYLNALTGKGVHVVTVNDYLAQRDAENNRPLFEFLGLTVGINLPGMPAPAKREAYAADITYGTNNEYGFDYLRDNMAFSPEERVQRKLHYALVDEVDSILIDEARTPLIISGPAEDSSEMYKRVNKIIPHLIRQEKEDSETFQGEGHFSVDEKSRQVNLTERGLVLIEELLVKEGIMDEGESLYSPANIMLMHHVTAALRAHALFTRDVDYIVKDGEVIIVDEHTGRTMQGRRWSDGLHQAVEAKEGVQIQNENQTLASITFQNYFRLYEKLAGMTGTADTEAFEFSSIYKLDTVVVPTNRPMIRKDLPDLVYMTEAEKIQAIIEDIKERTAKGQPVLVGTISIEKSELVSNELTKAGIKHNVLNAKFHANEAAIVAQAGYPAAVTIATNMAGRGTDIVLGGSWQAEVAALENPTAEQIEKIKADWQVRHDAVLEAGGLHIIGTERHESRRIDNQLRGRSGRQGDAGSSRFYLSMEDALMRIFASDRVSGMMRKLGMKPGEAIEHPWVTKAIANAQRKVESRNFD
B1 gave a Channel Activity, μA, +YEG: ion current in Xenopus oocytes injected with the fragment, liposomes, SecYEG-SecDF•YajC, pOmpA, ATP-Mg in test [1] of 2.2 μA. This molecule also gave a translocation of pOmpA, liposomes with SecYEG-SecDF•YajC, N-fragment reconstituted with C34 (Fig 6B) (% of the activity of intact SecA) in test [2] of 50.

B2: SecA N668 (SecA 1-668) (domain or fragment)
chain: MLIKLLTKVFGSRNDRTLRRMRKVVNIINAMEPEMEKLSDEELKGKTAEFRARLEKGEVLENLIPEAFAVVREASKRVFGMRHFDVQLLGGMVLNERCIAEMRTGEGKTLTATLPAYLNALTGKGVHVVTVNDYLAQRDAENNRPLFEFLGLTVGINLPGMPAPAKREAYAADITYGTNNEYGFDYLRDNMAFSPEERVQRKLHYALVDEVDSILIDEARTPLIISGPAEDSSEMYKRVNKIIPHLIRQEKEDSETFQGEGHFSVDEKSRQVNLTERGLVLIEELLVKEGIMDEGESLYSPANIMLMHHVTAALRAHALFTRDVDYIVKDGEVIIVDEHTGRTMQGRRWSDGLHQAVEAKEGVQIQNENQTLASITFQNYFRLYEKLAGMTGTADTEAFEFSSIYKLDTVVVPTNRPMIRKDLPDLVYMTEAEKIQAIIEDIKERTAKGQPVLVGTISIEKSELVSNELTKAGIKHNVLNAKFHANEAAIVAQAGYPAAVTIATNMAGRGTDIVLGGSWQAEVAALENPTAEQIEKIKADWQVRHDAVLEAGGLHIIGTERHESRRIDNQLRGRSGRQGDAGSSRFYLSMEDALMRIFASDRVSGMMRKLGMKPGEAIEHPWVTKAIANAQRKVESRNFDIRKQLLEYDDVANDQRRAIYSQRNELLD
B2: in test [1], the % pOmpA Translocation, +YEG: in vitro translocation of pOmpA into liposomes with SecYEG-SecDF•YajC (% pOmpA Translocation) is 0 and the Channel Activity, μA, +YEG: ion current in Xenopus oocytes injected with the fragment, liposomes, SecYEG-SecDF•YajC, pOmpA, ATP-Mg was determined as 5.8 μA. This molecule also came in with a translocation of pOmpA, liposomes with SecYEG-SecDF•YajC, N-fragment reconstituted with C34 (Fig 6B) (% of the activity of intact SecA) in test [2] of 50.

B3: SecA N639* (SecA 1-639, F639D) (domain or fragment)
chain: MLIKLLTKVFGSRNDRTLRRMRKVVNIINAMEPEMEKLSDEELKGKTAEFRARLEKGEVLENLIPEAFAVVREASKRVFGMRHFDVQLLGGMVLNERCIAEMRTGEGKTLTATLPAYLNALTGKGVHVVTVNDYLAQRDAENNRPLFEFLGLTVGINLPGMPAPAKREAYAADITYGTNNEYGFDYLRDNMAFSPEERVQRKLHYALVDEVDSILIDEARTPLIISGPAEDSSEMYKRVNKIIPHLIRQEKEDSETFQGEGHFSVDEKSRQVNLTERGLVLIEELLVKEGIMDEGESLYSPANIMLMHHVTAALRAHALFTRDVDYIVKDGEVIIVDEHTGRTMQGRRWSDGLHQAVEAKEGVQIQNENQTLASITFQNYFRLYEKLAGMTGTADTEAFEFSSIYKLDTVVVPTNRPMIRKDLPDLVYMTEAEKIQAIIEDIKERTAKGQPVLVGTISIEKSELVSNELTKAGIKHNVLNAKFHANEAAIVAQAGYPAAVTIATNMAGRGTDIVLGGSWQAEVAALENPTAEQIEKIKADWQVRHDAVLEAGGLHIIGTERHESRRIDNQLRGRSGRQGDAGSSRFYLSMEDALMRIFASDRVSGMMRKLGMKPGEAIEHPWVTKAIANAQRKVESRND
In turn, B3 yielded a Channel Activity, μA, +YEG: ion current in Xenopus oocytes injected with the fragment, liposomes, SecYEG-SecDF•YajC, pOmpA, ATP-Mg in test [1] of 1.1 μA.

B4: SecA N643 (SecA 1-643) (domain or fragment)
chain: MLIKLLTKVFGSRNDRTLRRMRKVVNIINAMEPEMEKLSDEELKGKTAEFRARLEKGEVLENLIPEAFAVVREASKRVFGMRHFDVQLLGGMVLNERCIAEMRTGEGKTLTATLPAYLNALTGKGVHVVTVNDYLAQRDAENNRPLFEFLGLTVGINLPGMPAPAKREAYAADITYGTNNEYGFDYLRDNMAFSPEERVQRKLHYALVDEVDSILIDEARTPLIISGPAEDSSEMYKRVNKIIPHLIRQEKEDSETFQGEGHFSVDEKSRQVNLTERGLVLIEELLVKEGIMDEGESLYSPANIMLMHHVTAALRAHALFTRDVDYIVKDGEVIIVDEHTGRTMQGRRWSDGLHQAVEAKEGVQIQNENQTLASITFQNYFRLYEKLAGMTGTADTEAFEFSSIYKLDTVVVPTNRPMIRKDLPDLVYMTEAEKIQAIIEDIKERTAKGQPVLVGTISIEKSELVSNELTKAGIKHNVLNAKFHANEAAIVAQAGYPAAVTIATNMAGRGTDIVLGGSWQAEVAALENPTAEQIEKIKADWQVRHDAVLEAGGLHIIGTERHESRRIDNQLRGRSGRQGDAGSSRFYLSMEDALMRIFASDRVSGMMRKLGMKPGEAIEHPWVTKAIANAQRKVESRNFDIRK
B4 yielded a Channel Activity, μA, +YEG: ion current in Xenopus oocytes injected with the fragment, liposomes, SecYEG-SecDF•YajC, pOmpA, ATP-Mg in test [1] of 3.2 μA.

B5: SecA N632 (SecA 1-632) (domain or fragment)
chain: MLIKLLTKVFGSRNDRTLRRMRKVVNIINAMEPEMEKLSDEELKGKTAEFRARLEKGEVLENLIPEAFAVVREASKRVFGMRHFDVQLLGGMVLNERCIAEMRTGEGKTLTATLPAYLNALTGKGVHVVTVNDYLAQRDAENNRPLFEFLGLTVGINLPGMPAPAKREAYAADITYGTNNEYGFDYLRDNMAFSPEERVQRKLHYALVDEVDSILIDEARTPLIISGPAEDSSEMYKRVNKIIPHLIRQEKEDSETFQGEGHFSVDEKSRQVNLTERGLVLIEELLVKEGIMDEGESLYSPANIMLMHHVTAALRAHALFTRDVDYIVKDGEVIIVDEHTGRTMQGRRWSDGLHQAVEAKEGVQIQNENQTLASITFQNYFRLYEKLAGMTGTADTEAFEFSSIYKLDTVVVPTNRPMIRKDLPDLVYMTEAEKIQAIIEDIKERTAKGQPVLVGTISIEKSELVSNELTKAGIKHNVLNAKFHANEAAIVAQAGYPAAVTIATNMAGRGTDIVLGGSWQAEVAALENPTAEQIEKIKADWQVRHDAVLEAGGLHIIGTERHESRRIDNQLRGRSGRQGDAGSSRFYLSMEDALMRIFASDRVSGMMRKLGMKPGEAIEHPWVTKAIANAQR
On to B5, for which the Channel Activity, μA, +YEG: ion current in Xenopus oocytes injected with the fragment, liposomes, SecYEG-SecDF•YajC, pOmpA, ATP-Mg in test [1] came to 0.4 μA.

These data come from paper PMC5456053.
